Source: paper doi:10.1101/2025.10.13.682252

Target: Biotinylated peptide BubR1 WT (Q293 to R302) (human)
Assay: pull-down

- fold of protein bound against the W295A peptide: 5 fold
Substance: GST-tagged BubR1 TPR (wild type) (from UniProt O60566 1-230) (domain or fragment)
